Molecular target: VEGF as named in the paper; reagent listed as Human VEGFR2 / KDR Protein, His Tag, Acrobiosystems KDR-H5227 (human) (UniProt P35968)
Test: BLI
Settings: BLI (Octet R4, anti-penta-His HIS1K sensors): protein loaded in phosphate buffer pH 7.4 (PlGF 2.5 ug/mL, VEGF 10 ug/mL), aptamers 0-20 uM in 1X Sartorius …

Chain of VEGF as named in the paper; reagent listed as Human VEGFR2 / KDR Protein, His Tag, Acrobiosystems KDR-H5227 (human) (P35968 20-764): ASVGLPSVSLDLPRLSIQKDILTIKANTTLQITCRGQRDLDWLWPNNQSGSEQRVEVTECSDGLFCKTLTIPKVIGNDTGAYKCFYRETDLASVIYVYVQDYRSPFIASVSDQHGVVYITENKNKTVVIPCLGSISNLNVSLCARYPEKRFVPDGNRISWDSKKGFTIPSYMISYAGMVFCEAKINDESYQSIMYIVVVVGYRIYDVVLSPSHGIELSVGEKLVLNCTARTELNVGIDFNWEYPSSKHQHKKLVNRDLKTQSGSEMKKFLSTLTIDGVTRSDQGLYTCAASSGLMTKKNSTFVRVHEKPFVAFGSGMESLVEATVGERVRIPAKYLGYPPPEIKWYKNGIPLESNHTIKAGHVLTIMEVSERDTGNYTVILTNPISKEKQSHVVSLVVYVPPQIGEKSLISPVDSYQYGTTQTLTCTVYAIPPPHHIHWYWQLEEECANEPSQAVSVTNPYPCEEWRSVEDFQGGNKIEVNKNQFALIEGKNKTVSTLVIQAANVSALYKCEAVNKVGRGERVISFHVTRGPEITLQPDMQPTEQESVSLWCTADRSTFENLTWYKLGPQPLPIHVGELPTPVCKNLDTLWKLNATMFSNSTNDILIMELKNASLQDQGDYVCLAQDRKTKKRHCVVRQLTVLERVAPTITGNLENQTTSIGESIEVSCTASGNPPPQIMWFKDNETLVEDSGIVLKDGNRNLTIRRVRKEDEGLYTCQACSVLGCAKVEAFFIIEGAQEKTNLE

CGAAAACAC [VEGF-Apt2]
Kd: 0.467 nM

CGAAGGGAA [VEGF-Apt1]
Kd: 320000 nM

GAAAGGCGA [VEGF-Apt3]
Kd (kon 9.164e1 1/Ms, koff 4.362e-7 1/s): 6.8 nM

— article PMC11428563
